Experimental data published in article PMC5777782, “Dimeric and tetrameric forms of muscle fructose-1,6-bisphosphatase play different roles in the cell” (Oncotarget, 2017).
Residue numbers refer to the chain shown, from its start.

Columns and labels:
[1] = target: T1, Muscle fructose-1,6-bisphosphatase (FBP2), D187L mutant (Homo sapiens, UniProt O00757, D188L); test: coupled enzyme activity assay; oligomerization by sedimentation velocity ultracentrifugation; type: biochemical
T1 construct: tag-free FBP2, expressed in E. coli
T1 sequence (O00757 2-339 D188L): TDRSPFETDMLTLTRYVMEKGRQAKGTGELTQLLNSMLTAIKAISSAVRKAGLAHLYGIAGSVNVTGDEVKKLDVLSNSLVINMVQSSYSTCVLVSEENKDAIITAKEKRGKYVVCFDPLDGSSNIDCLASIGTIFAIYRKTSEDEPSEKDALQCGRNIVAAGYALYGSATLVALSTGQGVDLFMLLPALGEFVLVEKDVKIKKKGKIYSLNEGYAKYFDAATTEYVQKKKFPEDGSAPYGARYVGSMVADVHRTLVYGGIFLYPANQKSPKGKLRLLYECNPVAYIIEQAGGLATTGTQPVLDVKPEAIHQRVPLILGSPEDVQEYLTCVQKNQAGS

[2] = target: T2, Muscle fructose-1,6-bisphosphatase (FBP2), wild-type (Homo sapiens, UniProt O00757); test: coupled glucose 6-phosphate isomerase/glucose 6-phosphate dehydrogenase activity assay; AMP-induced tetramerization by sedimentation velocity ultracentrifugation; type: biochemical
T2 construct: tag-free WT FBP2, expressed in E. coli
T2 sequence (O00757 2-339): T1 sequence (O00757 2-339 D188L) with L187D

[3] = target: T3, Muscle fructose-1,6-bisphosphatase (FBP2), L190G mutant (Homo sapiens, UniProt O00757, L191G); test: coupled enzyme activity assay, biphasic inhibition (second phase IC50 […]); type: biochemical
T3 construct: tag-free FBP2, expressed in E. coli
T3 sequence (O00757 2-339 L191G): T1 sequence (O00757 2-339 D188L) with L187D, L190G

[4] = target: human FBP2 D187L mutant (human); test: AUC; sedimentation velocity, laser interferometry, 42,000 rpm, 20°C, protein at 0.5 mg/ml, with 5 mM AMP
[5] = target: human FBP2 D187L mutant (human); test: AUC; sedimentation velocity, laser interferometry, 42,000 rpm, 20°C, protein at 0.5 mg/ml, with 120 μM AMP
[6] = target: human FBP2 D187L mutant (human); test: AUC; sedimentation velocity, laser interferometry, 42,000 rpm, 20°C, protein at 0.1, 0.5 and 1 mg/ml, without AMP; distribution of monomers, dimers and tetramers
[7] = target: human FBP2 L190G mutant (human); test: AUC; sedimentation velocity, laser interferometry, 42,000 rpm, 20°C, protein at 0.5 mg/ml, with 5 mM AMP
[8] = target: human FBP2 L190G mutant (human); test: AUC; sedimentation velocity, laser interferometry, 42,000 rpm, 20°C, protein at 0.5 mg/ml, with 120 μM AMP
[9] = target: human FBP2 L190G mutant (human); test: AUC; sedimentation velocity, laser interferometry, 42,000 rpm, 20°C, protein at 0.5 mg/ml, with 0.16 μM AMP
[10] = target: human FBP2 L190G mutant (human); test: AUC; sedimentation velocity, laser interferometry, 42,000 rpm, 20°C, protein at 0.1, 0.5 and 1 mg/ml, without AMP; distribution of monomers, dimers and tetramers

Compound: Nc1ncnc2c1ncn2[C@@H]1O[C@H](COP(=O)(O)O)[C@@H](O)[C@H]1O [AMP]
- IC50 [1]: 1440 ± 60 nM
- IC50 [2]: 0.59 ± 0.01 µM
- IC50 [3]: 84400 ± 6730 nM

Compound: human FBP2 D187L mutant (enzyme)
- percent tetrameric [4]: 35%
- percent tetrameric [5]: 45%
- percent dimeric [6]: 83.4%
- stoichiometry N [6]: 2

Compound: human FBP2 L190G mutant (enzyme)
- stoichiometry N [7]: 2
- stoichiometry N [8]: 2
- stoichiometry N [9]: 2
- percent dimeric [10]: 91.2%
- stoichiometry N [10]: 2
